Sequences and labels used below:
B1: EHEE_rd4_0726 (parent)
chain: DIEITTNGEEDAKRVIKELQKRNLEYHIEVHGNQWVIKVR

In this data set the parent is B1. Nature of the data set: folding stability dG (cDNA display proteolysis); higher = more stable. As to conditions: PBS, room temperature.
With DIEITTNGEEDAKRMIKELQKRNLEYHIEVHGNQWVIKVR [V15M], the “folding stability dG” value came to 1.79 kcal/mol.
In the case of DIEITTNGEEDAKRKIKELQKRNLEYHIEVHGNQWVIKVR [V15K] it was 1.2 kcal/mol.
On to DIEIMTNGEEDAKRVIKELQKRNLEYHIEVHGNQWVIKVR [T5M], for which the “folding stability dG” value turned out to be 2.39 kcal/mol.
For DIEIKTNGEEDAKRVIKELQKRNLEYHIEVHGNQWVIKVR [T5K] the value was 2.32 kcal/mol; for KIEITTNGEEDAKRVIKELQKRNLEYHIEVHGNQWVIKVR [D1K], 1.97 kcal/mol.
In the case of DIEITTNGEEDAKRVIKELQKRNLEYHIEVHGNQSVIKVR [W35S] it was 0.359 kcal/mol; in that of DIEITTNGEEDAKRVIKELQKRNLEYHIEVHQNQWVIKVR [G32Q], 1.59 kcal/mol; in that of DIEITTNGEEDAKRVIKELQKRNLEYHIEVHKNQWVIKVR [G32K], 1.35 kcal/mol.
In the case of DIEITTNGEEDAKRVIKELQKRNLEYHIEVHANQWVIKVR [G32A] it was 1.44 kcal/mol; in that of DIEITTAGEEDAKRVIKELQKRNLEYHIEVHGNQWVIKVR [N7A], 2.19 kcal/mol.
Turning to DIEITTWGEEDAKRVIKELQKRNLEYHIEVHGNQWVIKVR [N7W], the “folding stability dG” value was 3.1 kcal/mol.
In the case of DIEITTQGEEDAKRVIKELQKRNLEYHIEVHGNQWVIKVR [N7Q], the “folding stability dG” value worked out at 2.4 kcal/mol.
For DIEITTCGEEDAKRVIKELQKRNLEYHIEVHGNQWVIKVR [N7C], the “folding stability dG” value is 2.87 kcal/mol.
As for DIEITTNGEEDAKRVIKELQKRNLEYHIEVHGNQWVIDVR [K38D], the “folding stability dG” value was -0.365 kcal/mol.
For DIEITTNGEEDAKRVIKELQKRNLEYHIEVHGNQWVIVVR [K38V], the “folding stability dG” value is 2.7 kcal/mol.
For DIEITTNGEEDAKRVIKELQKRNLEYHIEVHGNQWVIMVR [K38M] the value was 2.16 kcal/mol; for DIEITTNGEEDAKRVIKELQKRNLEAHIEVHGNQWVIKVR [Y26A], 1.07 kcal/mol.
Regarding DIEITTNGEEDAKRVIKELQKRNLEIHIEVHGNQWVIKVR [Y26I], the “folding stability dG” value turned out to be 1.53 kcal/mol.
For DIEITTNGEEDAKRVIKELQKRNLEHHIEVHGNQWVIKVR [Y26H] the value was 0.887 kcal/mol; for DIEITTNGEEDAKRVIKELQKRNLELHIEVHGNQWVIKVR [Y26L], 1.35 kcal/mol; for DIEITTNGEEDAKRVIKELQKRNLEYHIEVQGNQWVIKVR [H31Q], 2.29 kcal/mol.
Take DIEITTNGEEDAKRVIKELQKRNLEYHIEVRGNQWVIKVR [H31R]: the “folding stability dG” value was found to be 2.97 kcal/mol.
For DIEITTNGEEDAKRVIKELQKRNLEYHIEVMGNQWVIKVR [H31M] the value was 2.32 kcal/mol; for DIEITTNGEEDAKRVIKELQKRNLEYHIEVDGNQWVIKVR [H31D], 1.79 kcal/mol; for DIEITTNGEEDAKRVIKELQKRNLEYHIEVHGNTWVIKVR [Q34T], 2.58 kcal/mol.
Regarding DIEITTNGEEDAKRVIKELQKRNLEYHIEVHGNRWVIKVR [Q34R], the “folding stability dG” value amounted to 2.59 kcal/mol.
For DIEITTNGEEDAKRVIKELQKRNLEYHIEVHGNEWVIKVR [Q34E], the “folding stability dG” value is 1.85 kcal/mol.
Regarding DIEITTNGEEDAKRVIKELQKRNLEYHIEVHGNSWVIKVR [Q34S], the “folding stability dG” value worked out at 2.1 kcal/mol.
For DIEITTNGEETAKRVIKELQKRNLEYHIEVHGNQWVIKVR [D11T] the value was 2.05 kcal/mol.
In the case of DIEITTNGEEMAKRVIKELQKRNLEYHIEVHGNQWVIKVR [D11M] it was 2.59 kcal/mol; in that of DIEITTNGEESAKRVIKELQKRNLEYHIEVHGNQWVIKVR [D11S], 2.3 kcal/mol.
As for DIEITTNGEEDAKRVIKELQKRNLEYHIEVHGNQWVIKVT [R40T], the “folding stability dG” value was 2.48 kcal/mol.
In the case of DIEITTNGEEDAKRVIKELQKRNLEYHIEVHGNQWVIKVQ [R40Q] it was 2.11 kcal/mol.
Consider DIEITTNGEEDAKRVIKELQKRNLEYHIEVHGNQWVIKVI [R40I], for which the “folding stability dG” value is 2.84 kcal/mol.
For DIEITTNGEEDFKRVIKELQKRNLEYHIEVHGNQWVIKVR [A12F] the value was 2.45 kcal/mol; for DIEITTNGEEDAKRVIKELQKRNLEYHIEVHGNQWVIKFR [V39F], 2.15 kcal/mol; for DIEITTNGEEDAKRVIVELQKRNLEYHIEVHGNQWVIKVR [K17V], 2.29 kcal/mol.
In the case of DIEITTNGEEDAKRVIYELQKRNLEYHIEVHGNQWVIKVR [K17Y] it was 2.43 kcal/mol; in that of DIEITTNGEEDAKRVIGELQKRNLEYHIEVHGNQWVIKVR [K17G], 1.97 kcal/mol.
As to DIEITTNGEEDAKRVIWELQKRNLEYHIEVHGNQWVIKVR [K17W], the “folding stability dG” value is 2.36 kcal/mol.
In the case of DIEITTNGEEDAKRVIAELQKRNLEYHIEVHGNQWVIKVR [K17A] it was 2.74 kcal/mol; in that of DIEITTNGEEDAKRVIKELSKRNLEYHIEVHGNQWVIKVR [Q20S], 1.9 kcal/mol; in that of DIEITTNGEEDAKRVIKELFKRNLEYHIEVHGNQWVIKVR [Q20F], 1.68 kcal/mol.
For DIEITTNGEEDAKRVIKELTKRNLEYHIEVHGNQWVIKVR [Q20T] the value was 2.17 kcal/mol; for DIEITTNGEEDAKRVIKELQLRNLEYHIEVHGNQWVIKVR [K21L], 2.65 kcal/mol.
For DIEITTNGEEDAKRVIKELQHRNLEYHIEVHGNQWVIKVR [K21H], the “folding stability dG” value is 2.02 kcal/mol.
For DIEITTNGEEDAKRVGKELQKRNLEYHIEVHGNQWVIKVR [I16G] the value was 0.895 kcal/mol; for DIEITTNGEEDAKRVTKELQKRNLEYHIEVHGNQWVIKVR [I16T], 1.25 kcal/mol; for DIEITTNGEEDAKRVYKELQKRNLEYHIEVHGNQWVIKVR [I16Y], 0.637 kcal/mol.
In the case of DIEITRNGEEDAKRVIKELQKRNLEYHIEVHGNQWVIKVR [T6R] it was 1.53 kcal/mol.
In the case of DIEITYNGEEDAKRVIKELQKRNLEYHIEVHGNQWVIKVR [T6Y] it was 1.59 kcal/mol; in that of DIEITHNGEEDAKRVIKELQKRNLEYHIEVHGNQWVIKVR [T6H], 0.768 kcal/mol.
For the variant DIEITDNGEEDAKRVIKELQKRNLEYHIEVHGNQWVIKVR [T6D], the “folding stability dG” value worked out at 0.026 kcal/mol.
In the case of DIEITTNGEEDAKRVIKELQKRNLEYHMEVHGNQWVIKVR [I28M] it was 1.61 kcal/mol.
Regarding DIEITTNGEEDAKRVIKELQKRNLEYHKEVHGNQWVIKVR [I28K], the “folding stability dG” value was -0.291 kcal/mol.
For the variant DIEITTNGEEDAKRVIKELQKVNLEYHIEVHGNQWVIKVR [R22V], the “folding stability dG” value stood at 1.45 kcal/mol.
In the case of DIEITTNGEEDAKRVIKELQKLNLEYHIEVHGNQWVIKVR [R22L] it was 2.88 kcal/mol; in that of DIEITTNGEEDAKRVIKELQKSNLEYHIEVHGNQWVIKVR [R22S], 1.76 kcal/mol.
In the case of DIEITTNGEEDAKRVIKELQKANLEYHIEVHGNQWVIKVR [R22A] it was 2.25 kcal/mol; in that of DIEITTNGEEDAKRVIKELQKKNLEYHIEVHGNQWVIKVR [R22K], 2.17 kcal/mol.
For DIEITTNGEEDAIRVIKELQKRNLEYHIEVHGNQWVIKVR [K13I] the value was 2.52 kcal/mol; for DIEITTNGEEDARRVIKELQKRNLEYHIEVHGNQWVIKVR [K13R], 2.71 kcal/mol; for DIEITTNGEEDAHRVIKELQKRNLEYHIEVHGNQWVIKVR [K13H], 2.24 kcal/mol.

The values above are taken from the MegaScale stability set (Tsuboyama et al. 2023).
